According to the supplement of paper PMC9170038:

Assays:
MS2 coat protein [1] = assay: apparent KD of MS2 coat protein, switch OFF state (with FMN for OFF switches, without FMN for ON switches); designed switch direction (-1 OFF switch, 1 ON switch): -1; higher = weaker reporter binding; conditions: FMN input: 0 or 200 uM; Eterna round: R93 (includes R88 designs)
Outline: (§1)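 Apparent KD is reported per design as the median of normalised binding-curve fits across its clusters. The RNA switches were made by on-chip transcription from Illumina sequencing clusters. SNAP-549-labelled MS2 coat protein was then added in twofold steps (0.7 or 1.5 nM to 3 µM; 0.8–1.5 h to 10–20 min per step) in 100 mM Tris-HCl pH 7.5, 80 mM KCl, 4 mM MgCl2, without or with constant ligand.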

MS2 coat protein [2] = assay: apparent KD of MS2 coat protein, switch ON state; designed switch direction (-1 OFF switch, 1 ON switch): -1; higher = weaker reporter binding; conditions: FMN input: 0 or 200 uM; Eterna round: R93 (includes R88 designs)
Outline: as §1

| Sequence | apparent KD of MS2 coat protein (MS2 coat protein [1]) [nM] | apparent KD of MS2 coat protein (MS2 coat protein [2]) [nM] |
| --- | --- | --- |
| AACAUGUCAGGAUAUGCGAAGGCGUCUGACAGACGAGGCUAGCAGAAGGGACAUGAGGAUCACCCAUGUAAAAA [Mod of Power Strip by EINando888 - changed 3 and 30 to C] | 48.8 | 111 |
| AAAAAGUGAGGAUAUAGCAAAGGUCACGAAAGUGACAAAGGCUAGAAGGCACAUGAGGAUCACCCAUGUAAAAA [Fiskers Exclusion 4 D2 63% 1] | 34.9 | 41.6 |
| AAAAAGGCAGGAUAUACAUGAGGAUCACCCAUGUAAAGAAAAGAAAGAUCCAAAGAAAGUAGAAGGGCCAAAAA [Ex3 sub 3] | 170 | 48.8 |
| GGUUGUGGAGGAUAUACAUGAGGAUCACCCAUGUGAGAGAAAAAAGUGAGAAAGAAAAGUAGAAGGUCAUGACG [salish99-ex3-65] | 46.8 | 33.8 |
| CUCUUGUCAGGAUAUAGAAGAAAAGAAGAGAAAGAAAAGAACUAGAAGGGACAUGAGGAUCACCCAUGUAAGAA [EteRNA is fun!] | 49.2 | 48.7 |
| AAAAAGUGAGGAUAUGCAGUGGCCUGUAGACGCAAGCACUUGUAGAAGGCACAUGAGGAUCACCCAUGUUUAAA [EX4 Malc#30] | 28 | 30.9 |
| CUCAUGUCAGGAUAUCAGUAGUAAAAAAAUAAAAUUACUACUGAGAAGGGACAUGAGGAUCACCCAUGUCCAAA [EX4 367: Super Stable 67] | 36.1 | 93.1 |
| AAAAGUAGAGGAUAUACAUGAGGAUCACCCAUGUAGAAAGGAAGUAUAUAUAUGGCGUGUAGAAGGCUGCAUGA [Mat - Mod of Nando] | 28 | 26.7 |
| AAGAAGGGAGGAUAUACAAAAUAAAAGAAAAGAAAGAAAGAACAUGAGGAUCACCCAUGUAGAAGGCCUAAGAA [Merneferre Ay I] | 8.74 | 23.8 |
| AAGAACACAGGAUAUACAUGAGGAUCACCCAUGUAAAAGAAAGAAAAGGGAAAGAAAAGUAGAAGGGUGAAGAA [Nebkheperure Tutankhaten] | 51.3 | 44.7 |
| AGAGACAGAGGAUAUACAUGAGGAUCACCCAUGUAAAAGAAAGAAAAGGGAAAGAAAAGUAGAAGGCUGAGAGA [Ruby 66] | 25.4 | 23.6 |
| AACUGACAUGAGGAUCACCCAUGUCAGGAUAUGCUUCAUAAAAAGAAACAAAAAUGAUGCAGAAGGGAUAUGGA [Design 35 :P Sub-opt 11] | 13.9 | 13 |
| AACAGGACAGGAUAUACAUGAGGAUCACCCAUGUCACAACAAAGCAGCGCAACACAAAGUAGAAGGGUCAUGGA [Ruby 13] | 59.1 | 75.8 |
| AGAUAGUCAGGAUAUACGAACAAGAAAAAAGACGAGAACGGACAUGAGGAUCACCCAUGUAGAAGGGACUAGAA [Diamond 11] | 28.6 | 45 |
| AACAUGUGAGGAUAUUUAAGAAAAGAAAAGAAAGAAAAGAAAAAGAAGGCACAUGAGGAUCACCCAUGUAAGAA [EteRNA is fun!] | 26 | 24.1 |
| ACCUGACAUGAGGAUCACCCAUGUCAGGAUAUGACUUCGAAAAAAAAAAAAAACGAUGUCAGAAGGGACAUGGG [Design 70: Sub-opt P] | 15.9 | 15.4 |
| AAGAAUGGAGGAUAUACAUGAGGAUCACCCAUGUAAAAGAAAGAAAAGGGAAAGAAAAGUAGAAGGCCAAAGAA [Sekhaenre/Akhenre Merenptah Siptah] | 41 | 28.5 |
